The values that follow come from US20220135694A1, “NOVEL CD40-BINDING ANTIBODIES” (LAVA THERAPEUTICS B.V., priority 2019, published 2022).

For data set [1], the system named is primary MM cells. In words: Lysis of primary multiple myeloma cells by healthy donor-derived Vγ9Vδ2-T cells. It counts as cell-based, human. As to conditions: overnight with healthy donor-derived Vγ9Vδ2-T cells, 1:1; FIG. 17B. The procedure: FIG. 17: V19S76K-5C8 is active against primary multiple myeloma. (A) Example of CD40 expression on primary MM cells, as detected using anti-CD40 PE antibody, clone MAB89, Beckman Couter, IM1936U. Representative histograms of 4 donors (B) Bone marrow of MM patients was cultured overnight in the presence or absence of healthy donor-derived Vγ9Vδ2-T cells in a 1:1 (Vγ9Vδ2-T:plasma cell) ratio in the absence or presence of V19S76K-5C8 (10 μM or 10 nM). Live plasma cells were quantified by flow cytometry using counting beads (n=5). (C, D) Mononuclear cells from the bone marrow of MM patients were cultured overnight with V19S76K-5C8 (VHH; 10 nM), aminobisphosphonate (ABP; 10 μM zoledronic acid (positive control)) or medium control in the presence of brefeldin, monensin and anti-CD107a to measure (C) cytokine production and (D) degranulation by flow cytometry (n=6). Data are presented as mean and SEM. *P<0.05, **P<0.01. (B-D: repeated-measures one-way ANOVA followed by Dunnett's post hoc test compared to condition without antibody).
Because CD40 is also expressed on primary multiple myeloma (MM) cells (Pellat-Deceunynck et al. (1994) Blood 84:2597) (FIG. 17A) and CD40 stimulation exerts various biological effects, including proliferation of MM cells, we assessed the efficacy of V19S76K-5C8 in primary bone marrow samples from MM patients.

Data set [2] concerns MM.1s cells. It counts as in vivo, mouse. The procedure:
FIG. 18: The bispecific […] VHH prolongs survival in vivo. Immunodeficient NSG mice were irradiated on day −1 and grafted (i.v.) with 2.5*10^6 MM.1s cells on day 0. Mice received PBS or human Vγ9Vδ2-T cells (1*10^7 cells; both i.v.) on days 7, 14 and 21 followed by PBS or V19S76K-5C8 (VHH; 5 mg/kg; both i.p.) twice weekly starting on day 9. (A) Schematic overview of treatment schedule. (B) Kaplan-Meier analyses of mouse survival (control: n=6; V19S76K-5C8 (VHH): n=6, Vγ9Vδ2-T cells: n=8, Vγ9Vδ2-T cells+V19S76K-5C8 (VHH): n=8). CD40 expression on MM.1s cells (human CD45^+CD38^+ cells) in the (C) bone marrow (BM) and (D) plasmacytomas at the time of sacrifice. (E) Body weight after 7 weeks of treatment relative to individual body weight at time of tumor injection. **P<0.01, ***P<0.001. Data are presented as mean and SD. (B: Mantel-Cox logrank test followed by Holm-Sidak's post hoc test, C: one-way ANOVA followed by Dunnett's post hoc test compared to control mice, D: unpaired t-test).
To study the effects of the bispecific VHH on tumor growth in vivo, immunodeficient NSG mice were injected with cells of MM.1s, a human multiple myeloma cell line. The tumor cells were allowed to grow out and engraft for 1 week before mice received the first of three weekly i.v. injections with either human Vγ9Vδ2-T cells or PBS, followed by twice weekly i.p. injections with V19S76K-5C8 or PBS (FIG. 18A).

Data set [3] has as its system Vγ9Vδ2-T cells from CLL patients. The data set can be described thus: Cytokine and degranulation assay: autologous Vγ9Vδ2-T cells from CLL patients. The settings on record: 10 nM, overnight with autologous CLL cells. The format is cell-based, human. The procedure:
PBMCs from CLL patients were obtained, cryopreserved and thawed as described in Example 3.
CLL PBMCs were partially depleted of CD19^+ CLL cells using magnetic beads (130-050-301, Miltenyi Biotec. ±50% of the PBMCs were CD19^+ after CD19 depletion). PBMCs were then cultured overnight with V19S76K-5C8 (10 nM) or medium control in the presence of Brefeldin A, GolgiStop and anti-CD107a to measure cytokine production and degranulation as described in Example 11. In contrast to Example 11, surface staining included PE-conjugated anti-Vγ9-TCR (2256535, Sony) and FITC-conjugated goat-anti-Ilama IgG-heavy and light chain antibodies (A160-100F, Bethyl Laboratories Inc.)

Data set [4] concerns primary CLL cells. The data set can be described thus: Venetoclax sensitivity and Bcl-xL expression of rmCD40L-stimulated primary CLL cells. It counts as cell-based, human. As to conditions: V19S76K-5C8 1000 nM before rmCD40L 48 h.
The test system of data set [5] is CD40-stimulated CLL cells. The data set can be described thus: Cytotoxicity against CLL cells cultured on 3T3 or CD40L+ 3T40L fibroblasts. It counts as cell-based, human. The settings on record: with Vγ9Vδ2-T cells 1:1, V19S76K-5C8 100 nM; 3T3 versus 3T40L; FIG. 14. The procedure:
Primary CLL cells were obtained, cryopreserved and thawed as described in Example 3. 3T3 fibroblasts, either WT or transfected with human CD40L (3T40L), were grown in complete IMDM. Vγ9Vδ2-T cells were grown as described in Example 7.
Primary CLL cells were cultured for 72 hours on irradiated 3T3 or 3T40L fibroblasts to induce CD40 stimulation.
Cells were then harvested and cultured overnight either with venetoclax (10 nM) as described in Example 10, or with Vγ9Vδ2-T cells and V19S76K-5C8 as described in Example 12. Viability measurement and flow cytometry were performed as described in Example 10.

Data set [6] has as its target T1, CD40 (Homo sapiens, UniProt P25942).
T1 construct: Primary chronic lymphocytic leukemia (CLL) cells express CD40 on the cell surface; endogenous in cells; host or cells: primary CLL PBMCs from untreated CLL patients
In words: CD40 antagonistic activity in primary CLL cells: pre-incubation, then rmCD40L for 48 h. As to conditions: pre-incubation, then rmCD40L for 48 hours; FIG. 8A-C. The format is cell-based. The procedure:
PBMCs (≥90% CD5^+CD19^+) from untreated CLL patients were obtained and cryopreserved as described in […]. Thawed cells were kept in complete IMDM.
To test whether the VHH antagonizes CD40 stimulation, primary CLL PBMCs were pre-incubated with VHH or medium control for 30 minutes at 37° C. and subsequently cultured for 48 hours in the presence of rmCD40L (100 ng/mL).
After 48 hours, cells were analyzed by flow cytometry as described in Example 4.
To assess whether binding of the VHH has antagonistic effects, primary CLL PBMCs were pre-incubated with V19S76K-5C8 or medium control and then cultured with rmCD40L for 48 hours and analyzed by flow cytometry as described in Example 5.

T1 sequence (P25942 21-277): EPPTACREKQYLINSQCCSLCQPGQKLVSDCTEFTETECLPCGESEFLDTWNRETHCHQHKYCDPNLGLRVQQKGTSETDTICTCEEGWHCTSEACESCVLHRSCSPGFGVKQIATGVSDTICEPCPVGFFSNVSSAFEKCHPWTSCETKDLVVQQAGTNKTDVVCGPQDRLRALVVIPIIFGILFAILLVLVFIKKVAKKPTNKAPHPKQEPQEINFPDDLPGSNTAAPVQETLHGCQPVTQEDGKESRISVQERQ

B1: V19S76K-5C8: tag-less bispecific anti-CD40-anti-Vγ9Vδ2-TCR VHH, SEQ ID NO:23 (protein)
VHH: QVQLQESGGGLVQAGGSLRLSCAASGRTFGRSAMGWFRQAPGKEREFVAAIGTRGGSTKYADSVKGRFTISTDNAKNTVYLQMDSLKPEDTAVYRCAVRGPGYPSAAIFQDEYHYWGQGTQVTVSSGGGGSEVQLVESGGGLVQAGGSLRLSCAASGRPFSNYAMGWFRQAPGKEREFVAAISWSGGSTSYADSVKGRFTISRDNAKNTVYLQMNSPKPEDTAIYYCAAQFSGADYGFGRLGIRGYEYDYWGQGTQVTVSS
modifications: antibody sequence
As for B1, the “lysis of primary MM cells” value in data set [1] is on record as “lysed primary MM cells”. Also, the median overall survival in data set [2] (V19S76K-5C8 5 mg/kg i.p. twice weekly plus human Vγ9Vδ2-T cells i.v., control group 47 days, FIG. 18B) is 80 days. Further, the overall survival entry in data set [2] (V19S76K-5C8 alone, without Vγ9Vδ2-T cells, FIG. 18B) is reported as “Neither V19S76K-5C8 alone or the Vγ9Vδ2-T cells alone significantly improved overall survival”. In data set [2] (V19S76K-5C8 plus Vγ9Vδ2-T cells, FIG. 18B), the “overall survival versus control group” value was “lived significantly longer”. Also, the “CD40 expression on malignant cells in the bone marrow versus control mice” value in data set [2] (V19S76K-5C8 plus Vγ9Vδ2-T cells, at time of sacrifice, FIG. 18C) is recorded as “significantly lower”. Moreover, the “CD40 expression on malignant plasma cells in plasmacytomas” value in data set [2] (V19S76K-5C8 plus Vγ9Vδ2-T cells, at time of sacrifice, FIG. 18D) was “A similar trend was observed”. Moreover, in data set [3] (FIG. 15A-C), the “production of IFN-γ, TNF-α and IL-2 by Vγ9Vδ2-T cells from CLL patients” value is “produced the cytokines IFN-γ”. In data set [3] (FIG. 15D), the “Vγ9Vδ2-T cell degranulation (CD107a expression)” value is listed as “induced Vγ9Vδ2-T cell degranulation”. Further, in data set [4] (then venetoclax 24 h, FIG. 9A), the “sensitivity to venetoclax of rmCD40L-stimulated primary CLL cells” value is “as sensitive to venetoclax as unstimulated CLL cells”. Besides, the Bcl-xL expression entry in data set [4] (FIG. 9B) is reported as “returned to unstimulated levels”. The “cytotoxicity in unstimulated versus CD40-stimulated CLL cells” value in data set [5] is “induced cytotoxicity in unstimulated and CD40-stimulated CLL cells to a similar extent”. Also, the “prevention of the effects of CD40 stimulation (CD80, CD86 and CD95 expression)” value in data set [6] is “prevented the effects of CD40 stimulation in a dose-dependent manner”.
